Target: the molecule itself
Assay: cryo-EM structure

B1: human ZNFX1 (NFX1-type zinc finger-containing 1), full-length, 2xStrep-tagged, wild type (enzyme, UniProt Q9P2E3 1-1918, looked up)
chain: MEERRPHLDARPRNSHTNHRGPVDGELPPRARNQANNPPANALRGGASHPGRHPRANNHPAAYWQREERFRAMGRNPHQGRRNQEGHASDEARDQRHDQENDTRWRNGNQDCRNRRPPWSNDNFQQWRTPHQKPTEQPQQAKKLGYKFLESLLQKDPSEVVITLATSLGLKELLSHSSMKSNFLELICQVLRKACSSKMDRQSVLHVLGILKNSKFLKVCLPAYVVGMITEPIPDIRNQYPEHISNIISLLQDLVSVFPASSVQETSMLVSLLPTSLNALRASGVDIEEETEKNLEKVQTIIEHLQEKRREGTLRVDTYTLVQPEAEDHVESYRTMPIYPTYNEVHLDERPFLRPNIISGKYDSTAIYLDTHFRLLREDFVRPLREGILELLQSFEDQGLRKRKFDDIRIYFDTRIITPMCSSSGIVYKVQFDTKPLKFVRWQNSKRLLYGSLVCMSKDNFETFLFATVSNREQEDLCRGIVQLCFNEQSQQLLAEVQPSDSFLMVETTAYFEAYRHVLEGLQEVQEEDVPFQRNIVECNSHVKEPRYLLMGGRYDFTPLIENPSATGEFLRNVEGLRHPRINVLDPGQWPSKEALKLDDSQMEALQFALTRELAIIQGPPGTGKTYVGLKIVQALLTNESVWQISLQKFPILVVCYTNHALDQFLEGIYNCQKTSIVRVGGRSNSEILKQFTLRELRNKREFRRNLPMHLRRAYMSIMTQMKESEQELHEGAKTLECTMRGVLREQYLQKYISPQHWESLMNGPVQDSEWICFQHWKHSMMLEWLGLGVGSFTQSVSPAGPENTAQAEGDEEEEGEEESSLIEIAEEADLIQADRVIEEEEVVRPQRRKKEESGADQELAKMLLAMRLDHCGTGTAAGQEQATGEWQTQRNQKKKMKKRVKDELRKLNTMTAAEANEIEDVWQLDLSSRWQLYRLWLQLYQADTRRKILSYERQYRTSAERMAELRLQEDLHILKDAQVVGMTTTGAAKYRQILQKVEPRIVIVEEAAEVLEAHTIATLSKACQHLILIGDHQQLRPSANVYDLAKNFNLEVSLFERLVKVNIPFVRLNYQHRMCPEIARLLTPHIYQDLENHPSVLKYEKIKGVSSNLFFVEHNFPEQEIQEGKSHQNQHEAHFVVELCKYFLCQEYLPSQITILTTYTGQLFCLRKLMPAKTFAGVRVHVVDKYQGEENDIILLSLVRSNQEGKVGFLQISNRICVALSRAKKGMYCIGNMQMLAKVPLWSKIIHTLRENNQIGPMLRLCCQNHPETHTLVSKASDFQKVPEGGCSLPCEFRLGCGHVCTRACHPYDSSHKEFQCMKPCQKVICQEGHRCPLVCFQECQPCQVKVPKTIPRCGHEQMVPCSVPESDFCCQEPCSKSLRCGHRCSHPCGEDCVQLCSEMVTIKLKCGHSQPVKCGHVEGLLYGGLLVKCTTKCGTILDCGHPCPGSCHSCFEGRFHERCQQPCKRLLICSHKCQEPCIGECPPCQRTCQNRCVHSQCKKKCGELCSPCVEPCVWRCQHYQCTKLCSEPCNRPPCYVPCTKLLVCGHPCIGLCGEPCPKKCRICHMDEVTQIFFGFEDEPDARFVQLEDCSHIFEVQALDRYMNEQKDDEVAIRLKVCPICQVPIRKNLRYGTSIKQRLEEIEIIKEKIQGSAGEIATSQERLKALLERKSLLHQLLPEDFLMLKEKLAQKNLSVKDLGLVENYISFYDHLASLWDSLKKMHVLEEKRVRTRLEQVHEWLAKKRLSFTSQELSDLRSEIQRLTYLVNLLTRYKIAEKKVKDSIAVEVYSVQNILEKTCKFTQEDEQLVQEKMEALKATLPCSGLGISEEERVQIVSAIGYPRGHWFKCRNGHIYVIGDCGGAMERGTCPDCKEVIGGTNHTLERSNQLASEMDGAQHAAWSDTANNLMNFEEIQGMM
- stoichiometry N: 2

— article doi:10.1101/2025.10.14.682297 (bioRxiv, 2025)
